Data: the supplement of paper PMC5998384

Experiments:
HeLa Kyoto [1] = assay: melting temperature (median over replicates), in situ; higher = more thermally stable
HeLa Kyoto [2] = assay: solubility in G1/S (NP-40 vs SDS abundance) (log2 ratio); higher = more soluble; conditions: cell cycle stage: G1/S
HeLa Kyoto [3] = assay: solubility change mitosis vs G1/S (difference of NP-40 vs SDS log2 ratios) (log2 ratio difference); higher = more soluble in mitosis
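For melting temperature (median over replicates), in situ in this document: HeLa Kyoto cells synchronized by double thymidine or nocodazole block, proteins quantified by TMT10plex mass spectrometry, three independent biological replicates.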
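For solubility change mitosis vs G1/S (difference of NP-40 vs SDS log2 ratios) in this document: synchronized HeLa Kyoto cells (double thymidine block for G1/S, nocodazole release for mitosis), protein amounts in NP-40 versus SDS lysates quantified by mass spectrometry, three biological replicates.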
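For solubility in G1/S (NP-40 vs SDS abundance) in this document: HeLa Kyoto cells arrested at G1/S by double thymidine block, proteins quantified by TMT10plex mass spectrometry in mild NP-40 versus SDS extracts, three biological replicates.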

Sequence	melting temperature (HeLa Kyoto [1]; cell cycle stage: mitosis) [°C]	solubility in G1/S (log2) (HeLa Kyoto [2])	solubility change mitosis (log2) (HeLa Kyoto [3])	melting temperature (HeLa Kyoto [1]; cell cycle stage: G1/S) [°C]
MSDESASGSDPDLDPDVELEDAEEEEEEEEVAVEECDRDDEEDLLDDPSLEGMCGTEHAQLGEDGQQPPRCTSTTSSQSEPSEQLRRHQGKNLASEDPKKKRAQKPSHMRRNIRKLLREDQLEPVTKAAQQEELERRKRLEQQRKDYAAPIPTVPLEFLPEEIALRASDGPQLPPRVLAQEVICLDSSSGSEDEKSSRDEVIELSSGEEDTLHIVDSSESVSEDDEEEEKGGTHVNDVLNQRDALGRVLVNLNHPPEEENVFLAPQLARAVKPHQIGGIRFLYDNLVESLERFKTSSGFGCILAHSMGLGKTLQVISFIDVLFRHTPAKTVLAIVPVNTLQNWLAEFNMWLPPPEALPADNKPEEVQPRFFKVHILNDEHKTMASRAKVMADWVSEGGVLLMGYEMYRLLTLKKSFATGRPKKTKKRSHPVIIDLDEEDRQQEFRREFEKALCRPGPDVVICDEGHRIKNCQASTSQALKNIRSRRRVVLTGYPLQNNLIEYWCMVDFVRPDFLGTRQEFSNMFERPILNGQCIDSTPQDVRLMRYRSHVLHSLLEGFVQRRGHTVLKIHLPAKEENVILVRLSKIQRDLYTQFMDRFRDCGSSGWLGLNPLKAFCVCCKIWNHPDVLYEALQKESLANEQDLDVEELGSAGTSARCPPQGTKGKGEDSTLASSMGEATNSKFLQGVGFNPFQERGNNIVTYEWAKDLLTNYQTGVLENSPKMVLLFHLIEESVKLGDKILVFSQSLSTLALIEEFLGKREVPCPPGTEGQGAQKWVRNISYFRLDGSTPAFERERLINQFNDPSNLTTWLFLLSTRAGCLGVNLIGANRVVVFDASWNPCHDAQAVCRVYRYGQKKPCYIYRLVADYTLEKKIYDRQISKQGMSDRVVDDLNPMLNFTRKEVENLLHFVEKEPAPQVSLNVKGIKESVLQLACLKYPHLITKEPFEHESLLLNRKDHKLTKAEKKAAKKSYEEDKRTSVPYTRPSYAQYYPASDQSLTSIPAFSQRNWQPTLKGDEKPVASVRPVQSTPIPMMPRHVPLGGSVSSASSTNPSMNFPINYLQRAGVLVQKVVTTTDIVIPGLNSSTDVQARINAGESIHIIRGTKGTYIRTSDGRIFAVRATGKPKVPEDGRMAASGSQGPSCESTSNGRHSASSPKAPDPEGLARPVSPDSPEIISELQQYADVAAARESRQSSPSTNAALPGPPAQLMDSSAVPGTALGTEPRLGGHCLNSSLLVTGQPCGDRHPVLDLRGHKRKLATPPAAQESSRRRSRKGHLPAPVQPYEHGYPVSGGFAMPPVSLNHNLTTPFTSQAGENSLFMGSTPSYYQLSNLLADARLVFPVTTDPLVPAGPVSSSSTATSVTASNPSFMLNPSVPGILPSYSLPFSQPLLSEPRMFAPFPSPVLPSNLSRGMSIYPGYMSPHAGYPAGGLLRSQVPPFDSHEVAEVGFSSNDDEDKDDDVIEVTGK [RAD54L2]	49.7	-0.0448	-0.143	–
MSGAGEALAPGPVGPQRVAEAGGGQLGSTAQGKCDKDNTEKDITQATNSHFTHGEMQDQSIWGNPSDGELIRTQPQRLPQLQTSAQVPSGEEIGKIKNGHTGLSNGNGIHHGAKHGSADNRKLSAPVSQKMHRKIQSSLSVNSDISKKSKVNAVFSQKTGSSPEDCCVHCILACLFCEFLTLCNIVLGQASCGICTSEACCCCCGDEMGDDCNCPCDMDCGIMDACCESSDCLEICMECCGICFPS [MDFIC]	55.7	-0.698	0.671	57.2
MSGLDGVKRTTPLQTHSIIISDQVPSDQDAHQYLRLRDQSEATQVMAEPGEGGSETVALPPPPPSEEGGVPQDAAGRGGTPQIRVVGGRGHVAIKAGQEEGQPPAEGLAAASVVMAADRSLKKGVQGGEKALEICGAQRSASELTAGAEAEAEEVKTGKCATVSAAVAERESAEVVKEGLAEKEVMEEQMEVEEQPPEGEEIEVAEEDRLEEEAREEEGPWPLHEALRMDPLEAIQLELDTVNAQADRAFQQLEHKFGRMRRHYLERRNYIIQNIPGFWMTAFRNHPQLSAMIRGQDAEMLRYITNLEVKELRHPRTGCKFKFFFRRNPYFRNKLIVKEYEVRSSGRVVSLSTPIIWRRGHEPQSFIRRNQDLICSFFTWFSDHSLPESDKIAEIIKEDLWPNPLQYYLLREGVRRARRRPLREPVEIPRPFGFQSG [TSPYL1]	49.9	-0.443	0.141	51.2
MSLQSRLSGRLAQLRAAGQLLVPPRPRPGHLAGATRTRSSTCGPPAFLGVFGRRARTSAGVGAWGAAAVGRTAGVRTWAPLAMAAKVDLSTSTDWKEAKSFLKGLSDKQREEHYFCKDFVRLKKIPTWKEMAKGVAVKVEEPRYKKDKQLNEKISLLRSDITKLEVDAIVNAANSSLLGGGGVDGCIHRAAGPLLTDECRTLQSCKTGKAKITGGYRLPAKYVIHTVGPIAYGEPSASQAAELRSCYLSSLDLLLEHRLRSVAFPCISTGVFGYPCEAAAEIVLATLREWLEQHKDKVDRLIICVFLEKDEDIYRSRLPHYFPVA [MACROD1]	51.1	0.246	-0.147	50.6
MSLVDLGKKLLEAARAGQDDEVRILMANGAPFTTDWLGTSPLHLAAQYGHYSTTEVLLRAGVSRDARTKVDRTPLHMAASEGHASIVEVLLKHGADVNAKDMLKMTALHWATEHNHQEVVELLIKYGADVHTQSKFCKTAFDISIDNGNEDLAEILQIAMQNQINTNPESPDTVTIHAATPQFIIGPGGVVNLTGLVSSENSSKATDETGVSAVQFGNSSTSVLATLAALAEASAPLSNSSETPVVATEEVVTAESVDGAIQQVVSSGGQQVITIVTDGIQLGNLHSIPTSGIGQPIIVTMPDGQQVLTVPATDIAEETVISEEPPAKRQCIEIIENRVESAEIEEREALQKQLDEANREAQKYRQQLLKKEQEAEAYRQKLEAMTRLQTNKEAV [GABPB1]	49.7	0.111	-0.139	46.9
MSQSRHRAEAPPLEREDSGTFSLGKMITAKPGKTPIQVLHEYGMKTKNIPVYECERSDVQIHVPTFTFRVTVGDITCTGEGTSKKLAKHRAAEAAINILKANASICFAVPDPLMPDPSKQPKNQLNPIGSLQELAIHHGWRLPEYTLSQEGGPAHKREYTTICRLESFMETGKGASKKQAKRNAAEKFLAKFSNISPENHISLTNVVGHSLGCTWHSLRNSPGEKINLLKRSLLSIPNTDYIQLLSEIAKEQGFNITYLDIDELSANGQYQCLAELSTSPITVCHGSGISCGNAQSDAAHNALQYLKIIAERK [PRKRA]	50	0.0756	0.0942	50.1
